Results from PMC10716038, “Talin and kindlin use integrin tail allostery and direct binding to activate integrins” (Nature Structural & Molecular Biology, 2023).
Substitutions are numbered along the chain they refer to. In names and notes the source's numbering stands. No end group written: not given here.

Columns and labels:
[1] = target: integrin β1A cytoplasmic tail (β1-CT), recombinant (UniProt P05556); assay: NMR titration; isotope-labelled β1-CT observed; TLN1-F3 and ΔKIND2 (wild type or K402E / Y13A) added together, ternary complex; 20 mM Tris, 200 mM NaCl, 1 mM DTT, pH 7.5, 298 K
[2] = target: ATTO 488-labelled β1-CT (488–β1-CT) (UniProt P05556); assay: MST; ATTO 488-labelled β-CT peptide (50–200 nM) held constant, one unlabelled protein titrated; 20 mM Tris pH 7.5, 200 mM NaCl, 1 mM TCEP, 0.05% Tween-20; apparent affinities (near-saturation only)
[3] = target: T1, β1 transmembrane and cytoplasmic tail polypeptide (β1-TM–CT) in nanodiscs (UniProt P05556 726-798, biotin (biotin-maleimide)); assay: FACS; 10% PIP2 nanodiscs
T1 chain: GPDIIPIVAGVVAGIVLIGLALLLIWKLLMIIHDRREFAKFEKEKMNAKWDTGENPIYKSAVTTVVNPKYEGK

[4] = target: T2, α5-TM lacking the cytoplasmic domain (tailless α5-TM) in nanodiscs (UniProt P11688 993-1025, biotin (biotin-maleimide)); assay: FACS; 10% PIP2 nanodiscs
T2 chain: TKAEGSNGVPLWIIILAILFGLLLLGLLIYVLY

[5] = target: T3, β3 transmembrane and cytoplasmic tail polypeptide (β3-TM–CT) in nanodiscs (UniProt O54890 715-787, biotin (biotin-maleimide)); assay: FACS; 10% PIP2 nanodiscs
T3 chain: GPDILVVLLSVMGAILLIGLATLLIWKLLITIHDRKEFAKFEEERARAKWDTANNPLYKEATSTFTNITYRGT

[6] = target: T2, α5-TM lacking the cytoplasmic domain …; assay: FACS; 10% PIP3 nanodiscs
[7] = target: T3, β3 transmembrane and cytoplasmic tail …; assay: FACS; 10% PIP3 nanodiscs
[8] = target: T4, ATTO 488-labelled β3-CT (488–β3-CT) (UniProt O54890 741-787, ATTO 488 at the N terminus); assay: MST; as a7, with a second unlabelled protein present at near-saturating concentration (named in the quantity or in the printed words); apparent constants (Kd,app*); conditions: both partners purified
T4 construct: integrin β3 cytoplasmic tail; source: synthetic peptide (MPIB Core Facility)
T4 peptide (looked up): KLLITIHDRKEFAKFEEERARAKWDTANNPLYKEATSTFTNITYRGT

kindlin-2 (KIND2) = target: T5, kindlin-2 (KIND2) (UniProt Q8CIB5 1-680); assay: MST
T5 chain: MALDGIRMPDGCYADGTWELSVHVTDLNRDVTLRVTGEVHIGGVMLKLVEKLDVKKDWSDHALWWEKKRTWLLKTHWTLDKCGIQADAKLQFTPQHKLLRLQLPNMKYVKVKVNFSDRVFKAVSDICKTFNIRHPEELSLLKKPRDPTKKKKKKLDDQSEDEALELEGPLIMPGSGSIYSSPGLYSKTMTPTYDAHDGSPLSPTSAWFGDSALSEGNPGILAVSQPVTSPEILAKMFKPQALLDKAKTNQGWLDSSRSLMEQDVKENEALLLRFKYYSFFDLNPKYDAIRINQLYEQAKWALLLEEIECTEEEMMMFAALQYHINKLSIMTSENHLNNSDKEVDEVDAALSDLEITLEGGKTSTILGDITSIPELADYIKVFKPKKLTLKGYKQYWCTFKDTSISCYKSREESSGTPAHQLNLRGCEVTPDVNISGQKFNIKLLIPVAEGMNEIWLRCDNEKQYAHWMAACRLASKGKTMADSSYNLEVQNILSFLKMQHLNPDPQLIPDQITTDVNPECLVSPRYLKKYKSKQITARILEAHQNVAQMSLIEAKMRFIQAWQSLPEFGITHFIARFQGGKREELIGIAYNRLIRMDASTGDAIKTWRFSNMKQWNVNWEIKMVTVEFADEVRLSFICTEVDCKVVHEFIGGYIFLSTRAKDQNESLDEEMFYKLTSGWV

[9] = target: T6, talin-1 head domain (THD1) (UniProt P26039 1-405); assay: MST
T6 chain: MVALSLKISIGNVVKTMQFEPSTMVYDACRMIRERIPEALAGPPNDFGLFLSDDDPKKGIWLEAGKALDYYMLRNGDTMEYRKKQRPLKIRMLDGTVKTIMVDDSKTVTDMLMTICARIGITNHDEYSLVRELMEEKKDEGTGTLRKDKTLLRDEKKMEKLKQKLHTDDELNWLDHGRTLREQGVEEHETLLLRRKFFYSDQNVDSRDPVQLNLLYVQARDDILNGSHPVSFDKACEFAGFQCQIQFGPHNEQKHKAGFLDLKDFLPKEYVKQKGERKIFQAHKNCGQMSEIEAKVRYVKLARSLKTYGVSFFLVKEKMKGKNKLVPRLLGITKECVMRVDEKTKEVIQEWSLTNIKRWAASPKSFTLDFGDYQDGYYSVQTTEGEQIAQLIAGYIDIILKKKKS

[10] = target: T1, β1 transmembrane and cytoplasmic tail …; assay: FACS; 10% PIP3 nanodiscs

Molecule: KIND2 lacking the flexible loop in F1 and the PH domain (ΔKIND2) (domain or fragment)
- decrease of the signal intensities of the membrane-proximal α-helix of β1-CT (H758–K770), 1:0.8 against 1:0.2, with TLN1-F3 added together [1]: 50%

Molecule: ΔKIND2^Y13A (domain or fragment)
- decrease of the signal intensities of the membrane-proximal α-helix of β1-CT (H758–K770), 1:0.8 against 1:0.2, with TLN1-F3 K402E added together [1]: 10%
- decrease of the signal intensities of the membrane-proximal α-helix of β1-CT (H758–K770), 1:0.8 against 1:0.2, with TLN1-F3 added together [1]: 30%

Molecule: TLN1-F3–ΔKIND2^Y13A fusion protein
- Kd of the kindlin contribution (fit of concentrations up to 5 µM) [2]: 2.9 µM
- Kd of the talin contribution (fit of concentrations above 5 µM) [2]: 16 µM

B1: KIND2^Y13A (natural protein)
chain: T5 chain with Y13A
- IC50 [3]: 0.098 µM
- IC50 [4]: 0.162 µM
- IC50 [5]: 0.219 µM
- IC50 [6]: 0.128 µM
- IC50 [7]: 0.173 µM

B2: kindlin-2 (KIND2) (natural protein, UniProt Q8CIB5 1-680, looked up)
chain: T5 chain
notes: kindlin-2 (KIND2) without the deletions of ΔKIND2; In FC-RDA a copy labelled with Alexa 647 (647–KIND2) was the reporter; also called 647–KIND2; source: E. coli Rosetta, purified (IMAC, SEC); not shown: His10, N-terminal, cleaved; SUMO, N-terminal, cleaved
- apparent Kd (Kd,app*) in the presence of THD1 [8]: 54 µM
- apparent Kd (Kd,app*) in the presence of THD1 K402E [8]: 16 µM
- apparent Kd (Kd,app*) in the presence of THD2 [8]: 27 µM
- apparent Kd (Kd,app*) in the presence of TLN1-F3 [8]: 120 µM
- apparent Kd (Kd,app*) in the presence of TLN2-F3 [8]: 47 µM

B3: KIND2^Y13A (natural protein, UniProt Q8CIB5 1-680, looked up)
chain: T5 chain with Y13A
notes: kindlin-2 (KIND2) with Y13A; In FC-RDA a copy labelled with Alexa 647 was the reporter; also called 647–KIND2^Y13A; source: E. coli Rosetta, purified (IMAC, SEC); not shown: His10, N-terminal, cleaved; SUMO, N-terminal, cleaved
- apparent Kd (Kd,app*) in the presence of THD1 [8]: 21 µM

Molecule: {ATTO 488}-KLLITIHDRKEFAKFEEERARAKWDTANNPLAKEATSTFTNITYRGT [ATTO 488-labelled β3-CT^Y772A]
- Kd (kindlin-2 (KIND2)): 15.5 µM
- Kd [9]: 511 µM

B4: THD1^K402E (domain or fragment)
chain: T6 chain with K402E
- IC50 [3]: 0.131 µM
- IC50 [4]: 0.246 µM
- IC50 [5]: 0.07 µM
- IC50 [10]: 0.054 µM
- IC50 [6]: 0.211 µM
- IC50 [7]: 0.051 µM

B5: talin-1 head domain (THD1) (domain or fragment, UniProt P26039 1-405, looked up)
chain: T6 chain
notes: talin-1 (TLN1) head domain (F0-F3), residues 1-405; In FC-RDA a copy labelled with ATTO 565 (565–THD1) was the reporter; also called 565–THD1; source: E. coli (DE3) Rosetta 2, purified (IMAC, SEC); not shown: His10, N-terminal, cleaved; SUMO, N-terminal, cleaved
- apparent Kd (Kd,app*) in the presence of KIND2 [8]: 102 µM
- apparent Kd (Kd,app*) in the presence of KIND2 Y13A [8]: 218 µM

B6: THD1^K402E (domain or fragment, UniProt P26039 1-405, looked up)
chain: T6 chain with K402E
notes: talin-1 (TLN1) head domain, residues 1-405, with K402E; In FC-RDA a copy labelled with ATTO 565 was the reporter; also called 565–THD1^K402E; source: E. coli (DE3) Rosetta 2, purified (IMAC, SEC); not shown: His10, N-terminal, cleaved; SUMO, N-terminal, cleaved
- apparent Kd (Kd,app*) in the presence of KIND2 [8]: 76 µM
